# According to the supplement of paper PMC10567573:
# ± gives the standard deviation.
# Experiment: protein stability index of a GFP-peptide fusion (GPS, HEK-293T) (PSI 1-6); higher = more stable
# [1] = treatment: DMSO, c terminus: a fixed tail appended
# [2] = treatment: MLN4924 1 uM, 8 h, c terminus: a fixed tail appended
# [3] = treatment: DMSO, c terminus: native
# [4] = treatment: MLN4924 1 uM, 8 h, c terminus: native
# 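Further: 24-mer peptide tiles fused after GFP, lentivirally expressed, FACS-sorted into six equal bins by GFP/DsRed ratio, decoded by Illumina sequencing, PSI is the read-weighted mean bin number.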
Sequence,protein stability index [1],protein stability index [2],protein stability index [3],protein stability index [4]
AVNRARRPLARPIKRGDILPPEKG [RHOBTB1],3.66 ± 0.23,3.77 ± 0.33,,
LHPLLSGRLGRWLRSTRFSGSLDR [PCDHGC5],2.46 ± 0.23,2.45 ± 0.54,,
FVSALGITAGAHRLWSHRSYKARL [SCD],2.73 ± 0.93,2.5 ± 0.24,,
ARRRKKILFYCHFPDLLLTKRDSF [ALG2],2.4 ± 0.56,2.04 ± 0.55,,
QALQAKASLTIPLVPETEDDRKLA [YJU2B],5.16 ± 0.24,5.24 ± 0.11,,
PEPGRAGYPAPRDEGVLRPRAHA [HAGHL],,,3.29 ± 0.19,3.41 ± 0.28
EFRDDRDLVMALSAGGHGGLLNDT [KCNA4],4.06 ± 0.35,3.91 ± 0.23,,
PPSVLISKNEVGIFTTPNFDETSS [KMT2E],4.09 ± 0.12,4.33 ± 0.069,,
LVHIVCHKKTTHKLNCDPSRIYKP [DFFB],2.41 ± 0.11,1.96 ± 0.41,,
AKDPGKGELPNHPKPAGGAIPTKK [FBF1],5.47 ± 0.34,5.65 ± 0.15,,
QRGALPAPDPELAAEMYQRGRAVL [RSAD1],4.36 ± 0.18,4.38 ± 0.17,,
FSIDEELVYENFYADFGPLNLAMV [CDC14A],2.75 ± 0.6,2.43 ± 0.6,,
PSNSSSLTLSGIKEDNSLLNQGFL [MYBL2],3.57 ± 0.35,3.81 ± 0.45,,
QPPDMASALTDRTSRAPSTYTYTS [RSPH3],4.39 ± 0.17,4.51 ± 0.15,,
TSCSLELIGDLIGHSSSVEMFLYF [WDR41],3.13 ± 0.88,2.4 ± 0.74,,
GSNPPYLPFRDASFGNCTYNLTIL [CDC14A],2.6 ± 0.69,2.8 ± 0.73,,
GKRMEFTSSCPNVSERSFDNVRSL [CRYBA1],4.12 ± 0.3,4.17 ± 0.28,,
KLSEHLRYCDSILREMLSKKHAAY [BRD3],2.28 ± 0.21,2.14 ± 0.21,,
TLASVPPAATFGADDLVLTLSNPQ [ELF3],4.28 ± 0.21,4.25 ± 0.2,,
MNNAQRIEKWVILEKDFSIYGGEL [ACSBG2],2.2 ± 0.12,2.28 ± 0.57,,
RMPDEDSKIDHYVLEYRRTNFEGP [FSD1],3.78 ± 0.19,3.79 ± 0.14,,
EGIKVEDLLFIVDTMLEEVENKEK [CEP70],3.07 ± 0.27,3.03 ± 0.42,,
RSRYDGHRIWMYNCHIGGSFSEET [LOXL2],2.17 ± 0.35,2.72 ± 0.35,,

Sequence,protein stability index [1],protein stability index [2],protein stability index [3],protein stability index [4]
VISLEKLNVGNERYVFEAVIRWIA [GAN],2.38 ± 0.38,2.09 ± 0.29,,
EKEFMKGNQLISNNIKFKKSSILT [CLCN6],3.46 ± 0.17,3.48 ± 0.38,,
SSYPVCVSKVVKGGSSGKGTTLRG [OAS1],4.11 ± 0.39,4.18 ± 0.19,,
FMEERELLGQDEETAMRKSLGEEE [RSPH3],5.58 ± 0.12,5.46 ± 0.4,,
DNLRKVVPCYSKTQKLSKIETLRL [NEUROD6],2.81 ± 0.17,2.8 ± 0.32,,
LTRPEPVHEFCAGRECQPRWETSS [ADAMTSL2],3.76 ± 0.15,3.98 ± 0.42,,
SVMVMREILDYIFSGQIRLNEDTI [GAN],2.53 ± 0.51,2.32 ± 0.64,,
VCRARPRACSHLIRLMQRCWQGDP [RIPK4],2.21 ± 1.1,2.86 ± 0.35,,
NLFVMQVEMDIYTALKKWMFLQLV [GMCL1],2.74 ± 0.66,2.17 ± 0.39,,
CTLEQDHFKKQTIYRFLKLHPRGK [FEM1C],2.43 ± 0.27,2.65 ± 0.37,,
VGVAGLISPWNLPLYLLTWKIAPA [ALDH8A1],2.92 ± 0.97,2.88 ± 0.95,,
IGAFLNLVVLRFLTMNSEDERRDA [KCNK9],3.27 ± 0.77,3.02 ± 0.6,,
PTQEEWRQVVDILWSDPMAQEGCK [PPEF2],3.96 ± 0.39,4.21 ± 0.079,,
WVLSIDGENAGSLTHIEAQNKIRA [PDLIM7],3.02 ± 0.33,3.28 ± 0.29,,
HGRHIDCPATWGPSVEQAADSLDF [FOXJ1],4.31 ± 0.22,4.58 ± 0.11,,
KENIEKDEDDVDQELANIDPTWIE [SRPK2],5.56 ± 0.28,5.53 ± 0.2,,
ESFFVDYEENEGAGPYLLNGSYLE [ADAMTSL2],3.658 ± 0.034,3.82 ± 0.072,,
EFFGSASQPAVELVSGSQSALGPP [CLINT1],3.96 ± 0.11,3.92 ± 0.51,,
GSRVISHYAGQDATDPFVAFHINK [FADS1],3.33 ± 0.31,3.35 ± 0.22,,
LIDRSGRHFGTILNYLRDGSVPLP [KCTD13],2.37 ± 0.28,2.46 ± 0.32,,
VLICVIVFIIILFIVLFATGAFS [VAMP8],,,4.42 ± 0.23,4.34 ± 0.15
KFSIPDLDRHQLPLDDALLSFAHA [DPCD],2.84 ± 0.21,2.94 ± 0.35,,
PTLDAPGGRALVVRKVPPGYSIKV [SMAD6],2.83 ± 0.17,3.17 ± 0.19,,

Sequence,protein stability index [1],protein stability index [2],protein stability index [3],protein stability index [4]
YGETDFHKQDGKAGLFSQEQYERN [TMEM40],4.18 ± 0.16,4.72 ± 0.56,,
HMVKISGGPRISYPLLHEWALREG [MAGEA6],2.47 ± 0.23,2.46 ± 0.22,,
ASGPINFTMFLNLFGEKLSGTDAE [MYL5],2.58 ± 0.28,2.6 ± 0.4,,
LLAIQFLEFFYGIATATEIAYYSY [SLC19A2],2.92 ± 1.3,3.13 ± 0.23,,
YRDYGHSRRDESYSRGYRNRRSSR [RBMY1A1],4.75 ± 0.14,4.79 ± 0.12,,
SETHAAGHSQEKTHSREKSSQESG [CHGB],5.67 ± 0.22,5.57 ± 0.16,,
QGYVSDIRRFLSAFHEPQVGLIQA [DFFB],2.15 ± 0.47,2.38 ± 0.17,,
SIAPPEAEGVVLSDSPDAADSTSF [PPTC7],5.34 ± 0.61,5.29 ± 0.76,,
ELFPTGKQLEPLVAPLADGKVAVG [VPS39],3.84 ± 0.25,3.8 ± 0.24,,
AAATTTTTTSAATATTAPPALDIF [SNAP91],4.45 ± 0.24,4.61 ± 0.16,,
VRTLSEPPDKGEEQVNFCESSNDF [ZBTB22],5.14 ± 0.25,5.26 ± 0.39,,
TPAKSLDKFIEDYLLPDTCFRMQI [OAS1],2.51 ± 0.51,2.65 ± 0.48,,
LLAEKEEKLQKEQKELQDVGQSLR [SASS6],5.45 ± 0.23,5.35 ± 0.28,,
SSFQDLLGDALAGPPRAPGRSGWP [HES6],3.13 ± 0.12,3.11 ± 0.18,,
SDARVVKDMATGKSKGYGFVSFFN [TIA1],2.79 ± 0.35,2.77 ± 0.16,,
RFIIIFEQIRFVMKAHSFVRENVP [SOAT1],2.51 ± 0.39,2.65 ± 0.56,,
LSLQKEQLQLKIIEIEDEAEKWQK [TRIM29],3.87 ± 0.094,3.9 ± 0.43,,
YKYGAIRDIDLKNRRGGPPFAFVE [SRSF1],2.38 ± 0.31,2.62 ± 0.36,,
ARALLEDDSDTQQVVVLVRDNGDP [PCDHGC5],4.82 ± 0.1,4.79 ± 0.46,,
PGRRGDPDTAPPSERPLEDLRLRL [RTN2],4.43 ± 0.2,4.63 ± 0.21,,
AVMEFHVSEDFNKMNFIKTYPAHQ [WDFY1],1.99 ± 0.32,1.93 ± 0.28,,
MLREPAEPVAAEPKQSGSFRYLQG [PDLIM4],4.18 ± 0.12,4.25 ± 0.17,,
LGEVAYHDYHGILVDEEEKVLIQK [ADD1],4.9 ± 0.15,4.74 ± 0.61,,

Sequence,protein stability index [1],protein stability index [2],protein stability index [3],protein stability index [4]
CGPAEERVLLTGLHAVADIHCENC [YPEL3],3.25 ± 0.33,3.58 ± 0.67,,
TSVLATLVVFAVLGFKANIMNEKC [SLC6A17],2.66 ± 0.12,3.31 ± 0.11,,
IHFDSYITCVSGAIVDLISRQYDK [FBXO33],2.7 ± 0.47,2.81 ± 0.53,,
FSEEDEEETTSQDWGTPRELTFSY [RTN2],4.22 ± 0.15,4.22 ± 0.49,,
VLVLIFNAAKTCPTMPALFSDHTF [INTS4],3.16 ± 0.42,3.16 ± 0.48,,
GSSSVALPKEASDGTGASQEPPTT [TOR1AIP2],5.4 ± 0.43,5.6 ± 0.34,,
STIVVMLTKLREMGREKCHQYWPA [PTPRD],2.55 ± 0.22,2.63 ± 0.44,,
QEAKLLHWNGRHKPWDFPSVHNDL [GLT8D2],3.11 ± 0.19,2.9 ± 0.28,,
RAKDFLPADIQAQFAISRELIRNI [SNX8],2.38 ± 0.18,2.48 ± 0.24,,
VGSDPLIKSDEECRDLVDEAKNYL [KLHL20],5.2 ± 0.11,5.09 ± 0.28,,
YQAFRECTLETTVHASGWNKILVP [BCL2L13],1.93 ± 0.33,2.32 ± 0.22,,
LQKQGKYSGVGLLDHMVSIYLLI [RNF180],,,2.31 ± 0.92,2.88 ± 0.81
TQIRTITEEIRDGKVISSREHVQS [KRT36],4.75 ± 0.088,4.86 ± 0.1,,
QLRATAGSLILPPGPGGTMKRHSS [FCHO1],3.87 ± 0.16,3.91 ± 0.33,,
TLLVCGKKAYDYFQAKKIPIVSSL [PDZK1],2.6 ± 0.75,2.58 ± 0.13,,
TKKLRLTKPSKSAALHIDLCKATS [INTS4],2.91 ± 0.17,3.13 ± 0.22,,
TRILKHSPESSRGQCGENLAWASY [GLIPR2],2.38 ± 0.44,2.38 ± 0.18,,
MYILSPAVLRRIQLQPTSIEKEVF [GMPPB],2.29 ± 0.42,2.24 ± 0.41,,
TYSLVPKKKTKVLKQRTVIEMFKS [EHMT1],2.41 ± 0.21,2.58 ± 0.34,,
IYNSNIFTDPFFIVETLCIIWFSF [KCNA1],3.23 ± 0.2,3.17 ± 0.29,,
